Test results: patent US5668000A, “Mitochondrial P450” (Sumitomo Chemical Company, Limited, priority 1990, dated 1997)

What was measured:
[1] = 25-hydroxylation activity of 1α-hydroxyvitamin D3 in yeast subcellular fractions with added ADX, ADR and NADPH; assay type: biochemical; conditions: expressed in yeast
Protocol: (§1) A mitochondrial fraction prepared from the strain AH22/pAC25 and a microsomal fraction prepared from the strain AH22/pAMS25 were used for the measurement of hydroxylation activities. Subcellular fractionation was prepared from a transformant yeast strain according to the following method. About 4×10^10 cells were collected from a culture containing about 2×10^7 cells/ml, suspended in Zymolyase solution [10 mM Tris-HCl (pH 7.5), 2.0M sorbitol, 0.1 mM dithiothreitol, 0.1 mM EDTA, 0.3 mg/ml Zymolyase 100T] and incubated at 30° C. for 1 hour to prepare spheroplasts. The spheroplasts were suspended in a sonication buffer (10 mM Tris-HCl (pH 7.5), 0.65M sorbitol, 0.1 mM dithiothreitol, 0.1 mM EDTA, 1 μg/ml leupeptin, 1 μg/ml pepstatin) and homogenized with a Teflon homogenizer to disrupt the cells.
(§2) Precipitate 1 was removed by centrifugation at 3000×g for 5 minutes to give supernatant 1'. Precipitate 1 was resuspended in a sonication buffer, homogenized again, centrifuged at 3000×g for 5 minutes to give precipitate 1 (undisrupted cells and nucleus fractions) and supernatant 1". […]
(§3) Reaction systems (2 ml) shown in the following but NADPH were mixed and preincubated at 37° C. for 5 minutes, and reaction was initiated by the addition of NADPH. […] The benzene layer obtained by centrifugation was dried completely and analyzed by HPLC under the condition listed below. […]

[2] = 27-hydroxylation activity of THC in yeast subcellular fractions with added ADX, ADR and NADPH; assay type: biochemical; conditions: expressed in yeast
Protocol: as §1, §2, §3

[3] = expressed in yeast

B1: P450c25: rat liver mitochondrial P450c25 expressed in yeast (protein, UniProt P17178 33-533, looked up)
Sterol 26-hydroxylase, …: AIPAALRDHESTEGPGTGQDRPRLRSLAELPGPGTLRFLFQLFLRGYVLHLHELQALNKAKYGPMWTTTFGTRTNVNLASAPLLEQVMRQEGKYPIRDSMEQWKEHRDHKGLSYGIFITQGQQWYHLRHSLNQRMLKPAEAALYTDALNEVISDFIARLDQVRTESASGDQVPDVAHLLYHLALEAICYILFEKRVGCLEPSIPEDTATFIRSVGLMFKNSVYVTFLPKWSRPLLPFWKRYMNNWDNIFSFGEKMIHQKVQEIEAQLQAAGPDGVQVSGYLHFLLTKELLSPQETVGTFPELILAGVDTTSNTLTWALYHLSKNPEIQEALHKEVTGVVPFGKVPQNKDFAHMPLLKAVIKETLRLYPVVPTNSRIITEKETEINGFLFPKNTQFVLCHYVVSRDPSVFPEPESFQPHRWLRKREDDNSGIQHPFGSVPFGYGVRSCLGRRIAELEMQLLLSRLIQKYEVVLSPGMGEVKSVSRIVLVPSKKVSLRFLQRQ
exhibited hydroxylation activities: hydroxylation activity to 1α-hydroxyvitamin D3 [1] | hydroxylation activity to THC [2] | hydroxylation activity to vitamin D3 [3]
